Target: T1, human PD-L2 ectodomain (human, UniProt Q9BQ51 20-220)
T1 sequence: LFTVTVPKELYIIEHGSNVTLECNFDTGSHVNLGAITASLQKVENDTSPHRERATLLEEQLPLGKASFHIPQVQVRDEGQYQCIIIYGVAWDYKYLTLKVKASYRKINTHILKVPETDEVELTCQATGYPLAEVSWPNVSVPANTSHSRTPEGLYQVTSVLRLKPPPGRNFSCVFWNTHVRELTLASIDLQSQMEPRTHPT
Assay: BLI

Kd: 2.6 nM
B1: human PD-1 triple mutant (N74G T76P A132V), PD-1-Fc (Fc fusion)
chain: LDSPDRPWNPPTFSPALLVVTEGDNATFTCSFSNTSESFVLNWYRMSPSGQPDKLAAFPEDRSQPGQDCRFRVTQLPNGRDFHMSVVRARRNDSGTYLCGAISLAPKVQIKESLRAELRVTERRAEVPTAHPSPSPRPAGQFQTLV

From paper PMC6900541 (Proceedings of the National Academy of Sciences of the …, 2019)
